Literature values as cited in PMC6769837.

Assays:
[1] = target: integrin αvβ8 (Homo sapiens) (UniProt P06756)
[2] = target: integrin αvβ3 (Homo sapiens) (UniProt P06756)
[3] = target: integrin αvβ6 (Homo sapiens) (UniProt P06756)

For LAP-TGFβ1 LAP (from UniProt P01137), the Kd [1] is given as 0.013 nM, the Kd [2] is given as 8500 nM and the Kd [3] is given as 10.3 nM.
